Stoichiometry N data for one substance are collected here from publication PMC4174979.

For this assay, the target named is WRN_(235–526) (human). The assay is described as follows: SEC.

Sequence of WRN_(235–526) (domain or fragment) (Q14191 2-1432): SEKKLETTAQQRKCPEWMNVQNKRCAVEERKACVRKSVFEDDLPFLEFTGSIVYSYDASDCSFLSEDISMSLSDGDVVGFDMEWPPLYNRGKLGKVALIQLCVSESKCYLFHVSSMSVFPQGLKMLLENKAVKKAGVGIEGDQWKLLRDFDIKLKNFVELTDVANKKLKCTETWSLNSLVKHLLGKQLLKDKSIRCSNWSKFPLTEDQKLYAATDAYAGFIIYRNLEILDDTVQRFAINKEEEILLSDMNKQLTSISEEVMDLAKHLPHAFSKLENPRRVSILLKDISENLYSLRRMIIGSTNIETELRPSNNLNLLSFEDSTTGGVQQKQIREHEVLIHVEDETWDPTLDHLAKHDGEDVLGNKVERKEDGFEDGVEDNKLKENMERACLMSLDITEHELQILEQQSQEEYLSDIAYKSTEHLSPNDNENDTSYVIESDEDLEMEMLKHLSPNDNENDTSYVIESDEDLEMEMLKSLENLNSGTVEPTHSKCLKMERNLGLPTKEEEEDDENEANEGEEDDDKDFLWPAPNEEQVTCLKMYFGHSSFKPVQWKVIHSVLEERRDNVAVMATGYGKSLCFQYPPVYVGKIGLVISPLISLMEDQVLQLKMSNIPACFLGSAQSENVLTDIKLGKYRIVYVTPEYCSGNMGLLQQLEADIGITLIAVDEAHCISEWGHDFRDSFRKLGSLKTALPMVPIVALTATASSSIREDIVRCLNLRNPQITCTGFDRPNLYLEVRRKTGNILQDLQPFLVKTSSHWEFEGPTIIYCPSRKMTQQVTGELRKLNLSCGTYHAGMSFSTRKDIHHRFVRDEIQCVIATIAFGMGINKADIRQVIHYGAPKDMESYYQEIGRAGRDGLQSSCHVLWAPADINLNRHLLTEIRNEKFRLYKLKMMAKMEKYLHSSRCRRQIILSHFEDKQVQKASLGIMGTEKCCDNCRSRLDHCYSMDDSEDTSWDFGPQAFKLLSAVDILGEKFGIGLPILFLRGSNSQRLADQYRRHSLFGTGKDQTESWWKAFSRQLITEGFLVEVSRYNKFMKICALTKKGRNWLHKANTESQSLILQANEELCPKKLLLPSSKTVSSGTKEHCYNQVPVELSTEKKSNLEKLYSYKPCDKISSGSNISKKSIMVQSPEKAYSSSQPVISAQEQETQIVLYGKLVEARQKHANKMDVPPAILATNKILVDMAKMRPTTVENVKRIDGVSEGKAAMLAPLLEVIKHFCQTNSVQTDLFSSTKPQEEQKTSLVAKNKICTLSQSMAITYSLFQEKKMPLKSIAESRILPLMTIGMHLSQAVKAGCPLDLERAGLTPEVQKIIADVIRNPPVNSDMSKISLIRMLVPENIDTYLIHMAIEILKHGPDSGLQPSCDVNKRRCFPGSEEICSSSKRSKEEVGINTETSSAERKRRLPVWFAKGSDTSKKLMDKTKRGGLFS

A word on the stoichiometry N: it is the number of molecules, sites or subunits per partner or assembly. In the case of WRN_(235–526) (domain or fragment), the stoichiometry N was 6.
